Laboratory results reported in publication PMC4164784, “4E-BPs require non-canonical 4E-binding motifs and a lateral surface of eIF4E to repress translation” (Nature Communications, 2014).
No end group written: not given here.

What was measured:
[1] = target: T1, eIF4E–eIF4G complex (eIF4E WT; eIF4G residues 578–650) (Drosophila melanogaster, UniProt P48598); test: Competition assay, displacement of GST-eIF4G from preassembled eIF4E (WT)–eIF4G complexes; type: biochemical; settings: for displacement of eIF4G from eIF4E WT–eIF4G complex (in words): 2–20 μM GB1-fused competitor, Strep-Tactin pull down; for competition with eIF4G for eIF4E WT (in words): Fig. 5a,c, fivefold molar excess of MBP-tagged competitor, 30 min at 4 °C, m7GTP or Strep-Tactin pull down
T1 construct: full-length eIF4E (WT or the II-AA mutant) containing an N-terminal SNH-tag was coexpressed; made in house; host or cells: E. coli BL21 Star (DE3), coexpression
T1 sequence (P48598 1-248 isoform P48598-2): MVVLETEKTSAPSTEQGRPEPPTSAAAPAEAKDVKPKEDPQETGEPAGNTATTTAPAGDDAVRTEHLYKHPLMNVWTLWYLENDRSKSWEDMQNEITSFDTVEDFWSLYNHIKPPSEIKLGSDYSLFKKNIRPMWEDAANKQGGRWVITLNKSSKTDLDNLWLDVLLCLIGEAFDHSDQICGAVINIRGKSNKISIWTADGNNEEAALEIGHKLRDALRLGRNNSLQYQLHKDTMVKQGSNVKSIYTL
Method: For the competition assays shown in Figs 5a,c and 6a,b, complexes containing SHN- or MBP-tagged eIF4E (WT or II-AA mutant) bound to GST-eIF4G (residues 578–650), GST-Thor (full length), GST-4E-T (residues 1–58) or GST-CUP (311–440) were obtained by coexpressing the corresponding proteins in E. coli BL21 (DE3) STAR cells (30 ml culture). The cells were resuspended in lysis buffer (5 ml) that was supplemented with EDTA-free protease inhibitor (Roche) and 1 mg ml^−1 lysozyme and lysed by sonication. The cleared lysates were incubated with 400 μl of Protino Glutathione Agarose 4B (Macherey-Nagel) for 1 h. The beads were washed three times with lysis buffer, and the proteins were eluted after 10 min of incubation with lysis buffer containing 25 mM L-glutathione. The protein complexes were stored at −20 °C or used in competition assays.
The purified recombinant complexes were mixed with excess amounts of the indicated purified competitor proteins (Fig. 5c) or with bacterial lysates expressing the competitor proteins (Figs 5a and 6) and incubated for 30 min at 4 °C. After incubation, 20 μl of immobilized γ-Aminophenyl-m^7GTP or Strep-Tactin Sepharose (IBA), were added to the samples and incubated for another 40 min at 4 °C. The beads were washed three times with lysis buffer and eluted with lysis buffer containing 2.5 mM desthiobiotin (Strep-Tactin Sepharose) or with 20 μl of SDS–PAGE loading buffer (Aminophenyl-m^7GTP beads). The proteins were analyzed by 10–15% SDS–PAGE followed by staining with Coomassie blue staining. […]

[2] = system: eIF4E (II-AA mutant)–eIF4G complex; test: Competition assay, displacement of GST-eIF4G from preassembled eIF4E (II-AA)–eIF4G complexes; type: biochemical, Drosophila melanogaster; settings: Fig. 4; 2 μM complex, GB1-fused competitor, 20 min at 4 °C, Strep-Tactin pull down; n=2
Method: To obtain the preassembled eIF4E–eIF4G complexes used in Figs 4 and 5d–g, full-length eIF4E (WT or the II-AA mutant) containing an N-terminal SNH-tag was coexpressed with an N-terminal GST-tagged eIF4G (residues 578–650). The cells were lysed by sonication in lysis buffer containing 50 mM HEPES (pH 7.2), 300 mM NaCl and 2 mM DTT. The complexes were purified from the cleared lysates using Protino Glutathione Agarose 4B beads (Machery-Nagel). The complex was further purified using a heparin column (HiTrap Heparin HP 5 ml, GE Healthcare) and a final size exclusion chromatography (Superdex 200 16/60, GE Healtcare) in 20 mM HEPES (pH 7.2), 200 mM NaCl and 2 mM DTT.
For the titration experiments shown in Fig. 4, 2 μM of purified complexes containing SHN-eIF4E (WT or II-AA mutant) bound to GST-eIF4G (residues 578–650) were incubated with increasing amounts (2–20 μM) of purified competitor proteins for 20 min at 4 °C. The eIF4E-bound proteins were recovered via Strep-Tactin Sepharose pull down and eluted with lysis buffer containing 2.5 mM desthiobiotin. The proteins were analyzed by 15% SDS–PAGE followed by staining with Coomassie blue staining. […]
presence of MBP (negative control), increasing amounts of 4E-BP peptides or eIF4G-GB1 in […]
The amounts of GST-eIF4G bound to eIF4E in each experimental condition were determined using the Image J software after Coomassie blue staining. To rule out the possibility that changes in the amount of GST-eIF4G bound to eIF4E resulted from variations in the loading volume, all values were normalized to the levels of SHN-eIF4E present in each condition. These values were set to 100 in the presence of MBP.
Each experiment was repeated at least twice. (e,f) Quantification of the experiments shown in Fig. 5d–g. The amounts of GST-eIF4G remaining bound to eIF4E in the presence of MBP, 4E-BP peptides or eIF4G-GB1 were normalized to those of eIF4E and set to 100 in the presence of MBP. […]
micrographs of fixed S2 cells expressing HA-4E-T and GFP-Tral. The localization of HA-4E-T was determined by indirect immunofluorescence using an anti-HA antibody. […]

[3] = Fig. 4, 2 μM complex, 20 min at 4 °C, n=2

| Substance | displacement of eIF4G from eIF4E WT–eIF4G complex (in words) [1, 3] | displacement of eIF4G from eIF4E II-AA–eIF4G complex (in words) [2] | molar excess at which eIF4G was effectively displaced ([1]; Fig. 4, 2 μM complex, GB1-fused C+NC competitor, 20 min at 4 °C, n=2) | competition with eIF4G for eIF4E WT (in words) [1] |
| --- | --- | --- | --- | --- |
| 4E-T C+NC: 4E-T residues 9–44, eIF4E-binding region short, C-terminal GB1 | displaced eIF4G from the complex and associated with eIF4E | did not efficiently displace eIF4G | – | – |
| CUP C+NC: CUP residues 325–376, eIF4E-binding region short, C-terminal GB1 (KSYTRSRLMDIRNGMFNALMHRSKESFVMPRIATCDDIELEGRLRRMNIWRT-GB1; UniProt Q9VMA3 325-376, looked up, fragment) | displaced eIF4G from the complex and associated with eIF4E | did not efficiently displace eIF4G | two | efficiently displaced preassembled eIF4G |
| Thor C+NC: Thor residues 50–83, eIF4E-binding region short, C-terminal GB1 (TKLIYERAFMKNLRGSPLSQTPPSNVPSCLLRGT-GB1; UniProt Q9XZ56 50-83, looked up, fragment) | displaced eIF4G from the complex and associated with eIF4E | did not efficiently displace eIF4G | – | – |
| Thor C: Thor residues 50–63, canonical motif | – | – | – | abolished competition |
